Consider three molecules from US20230295310A1 (ABCELLERA BIOLOGICS, published 2023).

The assay concerns the target EGFR on HeLa cells (UniProt P00533 25-1210, limits assumed). Briefly: cell-based or functional assay.

B1: GOMP001_bsAb_037 (bispecific antibody, human IgG1, kappa, L234A L235A)
heavy 1: QVQLVQSGAEVKKPGASVKVSCKASGYTFTSHWMHWVRKAPGQGLEWIGEFNPSNGRTNYNEEFKSKATMTVDTSTNTAYMELSSLRSEDTAVYYCASRDYDYDGRYFDYWGQGTLVTVSSASTKGPSVFPLAPSSKSTSGGTAALGCLVADYFPEPVTVSWNSGALTSGVHTFPAVLQSSGLYSLSSVVTVPSSSLGTQTYICNVNHKPSNTKVDEKVEPKSCDKTHTCPPCPAPEAAGGPSVFLFPPKPKDTLMISRTPEVTCVVVDVSHEDPEVKFNWYVDGVEVHNAKTKPREEQYNSTYRVVSVLTVLHQDWLNGKEYKCKVSNKALPAPIEKTISKAKGQPREPQVYTLPPSREEMTDNQVSLTCLVKGFYPSDIAVEWESNGQPENNYKTTPPVLMSDGSFFLASKLTVDKSRWQQGNVFSCSVMHEALHNHYTQKSLSLSPG
light 1: RIQMTQSPSSLSASVGDRVTITCSASSSVTYMYWYQDKPGKAPKLLIYDTSNLASGVPSRFSGSGSGTDYTFTISSLQPEDIATYYCQQWSSHIFTFGQGTKVEIKRTVAAPSVFIFPPSDKQLKSGTARVVCLLNNFYPREAKVQWKVDNALQSGNSQESVTEQDSKDSTYSLSSTLTLSKADYEKHKVYACEVTHQGLSSPVTKSFNRGEC
heavy 2: EVQLVESGGVLVKTGGSLRLSCVASGFSFKKAWMNWVRYAPGKGLEWVGRIKRNSDGGAADYAARVKDRFTLSRDDSKNTLYLQMNSLKTEDTAVYYCTTLDSSSWYVGYYYMDVWGRGTTVTVSSASTKGPSVFPLAPSSKSTSGGTAALGCLVKDYFPEPVTVSWNSGALTSGVHTFPAVLQSSGLYSLSSVVTVPSSSLGTQTYICNVNHKPSNTKVDKKVEPKSCDKTHTCPPCPAPEAAGGPSVFLFPPKPKDTLMISRTPEVTCVVVDVSHEDPEVKFNWYVDGVEVHNAKTKPREEQYNSTYRVVSVLTVLHQDWLNGKEYKCKVSNKALPAPIEKTISKAKGQPRRPRVYTLPPSREEMTKNQVSLVCLVKGFYPSDIAVEWESNGQPENNYKTTPPVLDSDGSFFLYSVLTVDKSRWQQGNVFSCSVMHEALHNHYTQKSLSLSPG
light 2: DIHMTQSPSSVSASLGDRVTFTCRASQNINNWLAWYQRKPGDAPKLLIYTASSLQSGVPSRFSGSGSGTDFTLTISSLQPDDFATYYCQQAHSLPITFGQGTRLGIKRTVAAPSVFIFPPSDEQLKSGTASVVCLLNNFYPREAKVQWKVDNALQSGNSQESVTEQDSKDSTYSLSSTLTLSKADYEKHKVYACEVTHQGLSSPVTKSFNRGEC
Consider B1, for which the Max killing % worked out at 83.6% and the “X… HeLa EC50” value was found to be 174 pM.

B2: GOMP001_bsAb_038 (bispecific antibody, human IgG1, kappa, L234A L235A)
heavy 1: EVQLVESGGVLVKTGGSLRLSCVASGFSFKKAWMNWVRKAPGKGLEWVGRIKRNSDGGAADYAAEVKDRFTLSRDDSKNTLYLQMNSLKTEDTAVYYCTTLDSSSWYVGYYYMDVWGKGTTVTVSSASTKGPSVFPLAPSSKSTSGGTAALGCLVADYFPEPVTVSWNSGALTSGVHTFPAVLQSSGLYSLSSVVTVPSSSLGTQTYICNVNHKPSNTKVDEKVEPKSCDKTHTCPPCPAPEAAGGPSVFLFPPKPKDTLMISRTPEVTCVVVDVSHEDPEVKFNWYVDGVEVHNAKTKPREEQYNSTYRVVSVLTVLHQDWLNGKEYKCKVSNKALPAPIEKTISKAKGQPREPQVYTLPPSREEMTDNQVSLTCLVKGFYPSDIAVEWESNGQPENNYKTTPPVLMSDGSFFLASKLTVDKSRWQQGNVFSCSVMHEALHNHYTQKSLSLSPG
light 1: RIHMTQSPSSVSASLGDRVTFTCRASQNINNWLAWYQDKPGKAPKLLIYTASSLQSGVPSRFSGSGSGTDFTLTISSLQPDDFATYYCQQAHSLPITFGQGTRLGIKRTVAAPSVFIFPPSDKQLKSGTARVVCLLNNFYPREAKVQWKVDNALQSGNSQESVTEQDSKDSTYSLSSTLTLSKADYEKHKVYACEVTHQGLSSPVTKSFNRGEC
heavy 2: QVQLVQSGAEVKKPGASVKVSCKASGYTFTSHWMHWVRYAPGQGLEWIGEFNPSNGRTNYNEKFKSKATMTVDTSTNTAYMELSSLRSEDTAVYYCASRDYDYDGRYFDYWGRGTLVTVSSASTKGPSVFPLAPSSKSTSGGTAALGCLVKDYFPEPVTVSWNSGALTSGVHTFPAVLQSSGLYSLSSVVTVPSSSLGTQTYICNVNHKPSNTKVDKKVEPKSCDKTHTCPPCPAPEAAGGPSVFLFPPKPKDTLMISRTPEVTCVVVDVSHEDPEVKFNWYVDGVEVHNAKTKPREEQYNSTYRVVSVLTVLHQDWLNGKEYKCKVSNKALPAPIEKTISKAKGQPRRPRVYTLPPSREEMTKNQVSLVCLVKGFYPSDIAVEWESNGQPENNYKTTPPVLDSDGSFFLYSVLTVDKSRWQQGNVFSCSVMHEALHNHYTQKSLSLSPG
light 2: DIQMTQSPSSLSASVGDRVTITCSASSSVTYMYWYQRKPGDAPKLLIYDTSNLASGVPSRFSGSGSGTDYTFTISSLQPEDIATYYCQQWSSHIFTFGQGTKVEIKRTVAAPSVFIFPPSDEQLKSGTASVVCLLNNFYPREAKVQWKVDNALQSGNSQESVTEQDSKDSTYSLSSTLTLSKADYEKHKVYACEVTHQGLSSPVTKSFNRGEC
Consider B2, for which the Max killing % turned out to be 93.6% and the “X… HeLa EC50” value was determined as 33.1 pM.

B3: GOMP001_bsAb_039 (bispecific antibody, human IgG1, kappa, L234A L235A)
heavy 1: QVQLVQSGAEVKKPGASVKVSCKASGYTFTSHWMHWVRKAPGQGLEWIGEFNPSNGRTNYNEEFKSKATMTVDTSTNTAYMELSSLRSEDTAVYYCASRDYDYDGRYFDYWGQGTLVTVSSASTKGPSVFPLAPSSKSTSGGTAALGCLVADYFPEPVTVSWNSGALTSGVHTFPAVLQSSGLYSLSSVVTVPSSSLGTQTYICNVNHKPSNTKVDEKVEPKSCDKTHTCPPCPAPEAAGGPSVFLFPPKPKDTLMISRTPEVTCVVVDVSHEDPEVKFNWYVDGVEVHNAKTKPREEQYNSTYRVVSVLTVLHQDWLNGKEYKCKVSNKALPAPIEKTISKAKGQPREPQVYTLPPSREEMTDNQVSLTCLVKGFYPSDIAVEWESNGQPENNYKTTPPVLMSDGSFFLASKLTVDKSRWQQGNVFSCSVMHEALHNHYTQKSLSLSPG
light 1: RIQMTQSPSSLSASVGDRVTITCSASSSVTYMYWYQDKPGKAPKLLIYDTSNLASGVPSRFSGSGSGTDYTFTISSLQPEDIATYYCQQWSSHIFTFGQGTKVEIKRTVAAPSVFIFPPSDKQLKSGTARVVCLLNNFYPREAKVQWKVDNALQSGNSQESVTEQDSKDSTYSLSSTLTLSKADYEKHKVYACEVTHQGLSSPVTKSFNRGEC
heavy 2: EVQLVESGGGLVKTGGSHRLSCVASGFSFKKAWMNWVRYAPGKGLEWVGRIKRNSDGGTTDYAARVKGRFILSRDDSKNTLYLQMNSLKTEDTAVYYCTTLDSSSWYVGYYYMDVWGRGTTVTVSSASTKGPSVFPLAPSSKSTSGGTAALGCLVKDYFPEPVTVSWNSGALTSGVHTFPAVLQSSGLYSLSSVVTVPSSSLGTQTYICNVNHKPSNTKVDKKVEPKSCDKTHTCPPCPAPEAAGGPSVFLFPPKPKDTLMISRTPEVTCVVVDVSHEDPEVKFNWYVDGVEVHNAKTKPREEQYNSTYRVVSVLTVLHQDWLNGKEYKCKVSNKALPAPIEKTISKAKGQPRRPRVYTLPPSREEMTKNQVSLVCLVKGFYPSDIAVEWESNGQPENNYKTTPPVLDSDGSFFLYSVLTVDKSRWQQGNVFSCSVMHEALHNHYTQKSLSLSPG
light 2: DIQMTQSPSSVSASVGDRVTITCRASQDINNWLAWYQRKPGDAPKILIYTASNLQSGVPSRFSGSGSGTDFTLTISSLQPEDFATYFCQQAHSLPITFGQGTRLEIKRTVAAPSVFIFPPSDEQLKSGTASVVCLLNNFYPREAKVQWKVDNALQSGNSQESVTEQDSKDSTYSLSSTLTLSKADYEKHKVYACEVTHQGLSSPVTKSFNRGEC
Regarding B3, the Max killing % turned out to be 81.1% and the “X… HeLa EC50” value was found to be 374 pM.
